Results published in patent publication US20220282217A1 (BIONTECH US, published 2022).
Values belong to the binder of their own block, whether it stands above or below them.

Key:
[1] = target: T1, HLA class I molecule A02.01; assay: pMHC-I dissociation half-life, 125I-b2m
T1 construct: Purified MHC class I complex; also called HLA-A02:01
Procedure, shortened: (§1)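 Biotinylated MHC-I heavy chain made in E. coli, captured on streptavidin plates and complexed with peptide and radiolabelled light chain. Dissociation started with excess unlabelled light chain at 37 °C. Stability is the half-life in hours from scintillation counts.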

[2] = target: T2, HLA class I molecule B08.01; assay: pMHC-I dissociation half-life, 125I-b2m
T2 construct: Purified MHC class I complex; also called HLA-B08:01
Procedure, shortened: as §1

[3] = target: T1, HLA class I molecule A02.01; assay: competition with radiolabeled reference peptide on purified MHC I
Procedure: (§2) Peptides were incubated at varying concentrations with these complexes for 2 days, and the amount of remaining radiolabeled peptide bound to […] was measured using size exclusion gel-filtration.

[4] = target: T3, HLA-A24.02 (human); assay: competition vs radiolabeled reference peptide on purified MHC I, gel filtration
T3 construct: As for HLA-A02.01
Procedure: as §2

[5] = target: T4, HLA-B08.01 (human); assay: pMHC-I dissociation half-life, 125I-b2m
T4 construct: Purified class I MHC
Procedure, shortened: as §1

[6] = target: T5, HLA class I molecule A03.01; assay: competition with radiolabeled reference peptide on purified MHC I
T5 construct: Purified MHC class I complex; also called HLA-A03:01
Procedure: as §2

[7] = target: T6, HLA class I molecule B07.02; assay: as above
T6 construct: Purified MHC class I complex; also called HLA-B07:02
Procedure: as §2

[8] = target: T7, HLA-A02.01 (human); assay: pMHC-I dissociation half-life, 125I-b2m
T7 construct: Purified class I MHC
Procedure, shortened: as §1

[9] = target: T7, HLA-A02.01; assay: competition with radiolabeled reference peptide, purified MHC I
Procedure: as §2

[10] = target: T8, HLA class I molecule A01.01; assay: competition with radiolabeled reference peptide on purified MHC I
T8 construct: Purified MHC class I complex; also called HLA-A01:01
Procedure: as §2

[11] = target: T2, HLA class I molecule B08.01; assay: pMHC-I dissociation assay with 125I-labeled beta2m light chain at 37 C, scintillation counts; time in hours for half of the complexes to dissociate
Procedure: Briefly, synthetic genes encoding biotinylated MHC-I heavy and light chains are expressed in E. coli and purified from inclusion bodies using standard methods. […] These reactions are carried out in streptavidin coated microplates to bind the biotinylated MHC-I heavy chains to the surface and allow measurement of radiolabeled light chain to monitor complex formation. Dissociation is initiated by addition of higher concentrations of unlabeled light-chain and incubation at 37° C. Stability is defined as the length of time in hours it takes for half of the complexes to dissociate, as measured by scintillation counts.

[12] = target: T9, HLA class I molecule A24.02; assay: competition with radiolabeled reference peptide on purified MHC I
T9 construct: Purified MHC class I complex; also called HLA-A24:02
Procedure: as §2

[13] = target: T10, HLA-B07.02 (human); assay: competition with radiolabeled reference peptide, purified MHC I
T10 construct: Purified class I MHC
Procedure: as §2

IC50 [7]: 32.8 nM
Binder: PPRPPRAAC (also called LMAN1(+1))

IC50 [6]: 57.5 nM
Binder: AISTRDPLSK (also called PIK3CA, E542K)

Stability (T1/2 (h)) [5]: 0 h
Binder: GMNWRPILTI (also called TP53, R248W)

IC50 [12]: 0.4 nM
Binder: LYITAFFLLD (also called NDUFC2 (-KCDT14)(-1))

IC50 [12]: 45.3 nM
Binder: LYITAFFFCW (also called NDUFC2 (-KCDT14)(+1))

IC50 [13]: 223 nM
Binder: ALKKLRSPL (also called SMAP1(-1))

Stability (T1/2 (h)) [2]: 0 h
Binder: KLSDSRTAL (also called FRG1B, I1OT)

Observed MHC Stability [11]: 0.4 h
Binder: IMKPKRDGYM (also called GATA3 . . ; CSNH)

IC50 [7]: 2530 nM
Binder: RPLQTHVLPE (also called GATA3 . . ; CSNH)

Observed MHC Stability [11]: 0 h
Binder: FLKAESKIMF (also called GATA3 . . ; CSNH)

IC50 [7]: 2110 nM
Binder: VPAVPFDLHF (also called GATA3 . . ; CSNH)

IC50 [4]: 73.4 nM
Binder: FFCYILNTMF (also called CNOT1(-1))

IC50 [10]: 7 nM
Binder: ILDTAGREEY (also called NRAS, Q61R)

IC50 [10]: 14.3 nM
Binder: ILDTAGKEEY (also called NRAS, Q61K)

IC50 [6]: 16 nM
Binder: VLWTTPPLQH (also called GATA3 . . ; CSNH)

IC50 [10]: 606 nM
Binder: GSNEVTTRY (also called RBM27(+1))

Stability (T1/2 (h)) [5]: 0 h
Binder: MNWRPILTI (also called TP53, R248W)

IC50 [4]: 28.2 nM
Binder: RLSSVLQRF (also called β2M, . . ; SQIS)

Stability (T1/2 (h)) [5]: 0 h
Binder: CMGSMNRRPI (also called TP53, G245S)

Observed MHC Stability [11]: 1.2 h
Binder: FLKAESKIM (also called GATA3 . . ; CSNH)

Stability (T1/2 (h)) [5]: 0 h
Binder: TQLARFFPI (also called RNF43, RHTP)

Stability (T1/2 (h)) [5]: 0 h
Binder: NQRPILTII (also called TP53, R248Q)

IC50 [3]: 323 nM | IC50 [12]: 60.1 nM
Binder: LLYITAFFLL (also called NDUFC2 (-KCDT14)(-1))

Stability (T1/2 (h)) [1]: 0 h | Stability (T1/2 (h)) [2]: 0 h | IC50 [3]: 4720 nM
Binder: LQVLHECNSL (also called MEK, P124L)

Stability (T1/2 (h)) [5]: 0 h
Binder: MLTDSLFLPI (also called VHL, QCIL)

The remaining lines, values behind:

Binder: LLYITAFFL (also called NDUFC2 (-KCDT14)(-1))
Stability (T1/2 (h)) [1]: 17 h | Stability (T1/2 (h)) [2]: 0 h | IC50 [3]: 713 nM

Binder: RRMPPCLANF (also called C15ORF40(+1))
IC50 [4]: 141 nM

Binder: MALNSEALSV (also called TMPRSS2: ERG)
Stability (T1/2 (h)) [5]: 0 h

Binder: FFCWILSCK (also called NDUFC2 (-KCDT14)(+1))
IC50 [6]: 185 nM

Binder: SMNRRPILTI (also called TP53, G245S)
Stability (T1/2 (h)) [5]: 0 h

Binder: CMGGMNQRPI (also called TP53, R248Q)
Stability (T1/2 (h)) [8]: 0 h | Stability (T1/2 (h)) [5]: 0 h | IC50 [9]: 3670 nM

Binder: CMGGMNWRPI (also called TP53, R248W)
Stability (T1/2 (h)) [5]: 0 h

Binder: QVLHECNSL (also called MEK, P124L)
Stability (T1/2 (h)) [1]: 0.5 h | Stability (T1/2 (h)) [2]: 0 h | IC50 [3]: 7770 nM

Binder: GMNQRPILTI (also called TP53, R248Q)
Stability (T1/2 (h)) [8]: 0.4 h | Stability (T1/2 (h)) [5]: 0 h | IC50 [9]: 709 nM

Binder: TGSNEVTTRY (also called RBM27(+1))
IC50 [10]: 15500 nM

Binder: ESKIMFATL (also called GATA3 . . ; CSNH)
Observed MHC Stability [11]: 1.3 h

Binder: TTNAFSGEY (also called RAC1, P29S)
IC50 [10]: 4.4 nM

Binder: KSRQNHLQL (also called SMAP1(-1))
IC50 [13]: 78 nM

Binder: GFKLFSCLSF (also called C15ORF40(+1))
IC50 [4]: 643 nM

Binder: FFFCWILSCK (also called NDUFC2 (-KCDT14)(+1))
IC50 [6]: 597 nM

Binder: LLALWECSL (also called MSH3(-1))
Stability (T1/2 (h)) [1]: 4 h | Stability (T1/2 (h)) [2]: 0 h

Binder: EYMANGSLL (also called BTK, C481S)
IC50 [4]: 5 nM

Binder: GPPRPPRAAC (also called LMAN1(+1))
IC50 [7]: 48.6 nM

Binder: EPHLALQPL (also called GATA3 . . ; CSNH)
IC50 [7]: 17 nM

Binder: LYITAFFLL (also called NDUFC2 (-KCDT14)(-1))
IC50 [12]: 0.1 nM

Binder: ILDTAGHEEY (also called KRAS, Q61H)
IC50 [10]: 64.2 nM

Binder: ILDTAGLEEY (also called KRAS, Q61L)
IC50 [10]: 8.6 nM

Binder: LYGLLLEML (also called ESR1, D538G)
IC50 [4]: 0.8 nM

Binder: SMNRRPILT (also called TP53, G245S)
Stability (T1/2 (h)) [8]: 0 h | Stability (T1/2 (h)) [5]: 0 h | IC50 [9]: 3840 nM

Binder: QPVLWTTPPL (also called GATA3 . . ; CSNH)
IC50 [7]: 109 nM

Binder: RVQNQGHLL (also called UBR5(-1))
IC50 [13]: 826 nM

Binder: KFPELLCVW (also called β2M, . . ; SIRH)
IC50 [4]: 13.7 nM

Binder: YTTNAFSGEY (also called RAC1, P29S)
IC50 [10]: 10.5 nM

Binder: MFLKAESKI (also called GATA3 . . ; CSNH)
IC50 [12]: 332 nM

Binder: LHFCRSSIM (also called GATA3 . . ; CSNH)
Observed MHC Stability [11]: 0 h

Binder: HVLPEPHLAL (also called GATA3 . . ; CSNH)
IC50 [7]: 1330 nM

Binder: RMPPCLANF (also called C15ORF40(+1))
IC50 [4]: 8.7 nM

Binder: LPRKPTRAA (also called TP53, QPSL)
Stability (T1/2 (h)) [5]: 0 h

Binder: LPQARLCLI (also called MSH3(-1))
IC50 [7]: 72.6 nM
